Earlier results, collected in publication PMC9038201.

Target: ubiquitin (Homo sapiens) (UniProt P0CG47)

In the case of PLpro (from UniProt P0DTD1), the Kd is listed as 120 µM.
